Assay results: paper PMC10397247
One block for each binder: values may come before it.

Legend:
Assay in all cases: two-hybrid library CCNG1;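 further: natural log of median RNA to DNA barcode read ratio; higher means stronger binding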
4H344-bA = target: T1, 4H344-bA
T1 chain: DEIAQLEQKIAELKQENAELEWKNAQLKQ

4H3961-bA = target: T2, 4H3961-bA
T2 chain: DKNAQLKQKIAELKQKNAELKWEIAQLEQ

4H3907-bA = target: T3, 4H3907-bA
T3 chain: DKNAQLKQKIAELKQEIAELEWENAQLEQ

4H363-bA = target: T4, 4H363-bA
T4 chain: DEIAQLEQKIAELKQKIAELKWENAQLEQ

4H470-bA = target: T5, 4H470-bA
T5 chain: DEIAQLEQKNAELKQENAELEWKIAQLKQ

4H492-bA = target: T6, 4H492-bA
T6 chain: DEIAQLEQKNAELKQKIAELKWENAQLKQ

4H3277-bA = target: T7, 4H3277-bA
T7 chain: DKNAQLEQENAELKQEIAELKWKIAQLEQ

4H2839-bA = target: T8, 4H2839-bA
T8 chain: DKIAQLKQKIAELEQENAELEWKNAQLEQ

4H3057-bA = target: T9, 4H3057-bA
T9 chain: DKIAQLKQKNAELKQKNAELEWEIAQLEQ

4H967-bA = target: T10, 4H967-bA
T10 chain: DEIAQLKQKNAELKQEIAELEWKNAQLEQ

4H2915-bA = target: T11, 4H2915-bA
T11 chain: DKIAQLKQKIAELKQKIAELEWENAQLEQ

4H319-bA = target: T12, 4H319-bA
T12 chain: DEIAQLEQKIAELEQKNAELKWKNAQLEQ

4H2503-bA = target: T13, 4H2503-bA
T13 chain: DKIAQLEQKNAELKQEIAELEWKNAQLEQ

4H2438-bA = target: T14, 4H2438-bA
T14 chain: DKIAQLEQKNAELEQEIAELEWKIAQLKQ

4H2717-bA = target: T15, 4H2717-bA
T15 chain: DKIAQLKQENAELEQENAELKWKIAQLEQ

4H348-bA = target: T16, 4H348-bA
T16 chain: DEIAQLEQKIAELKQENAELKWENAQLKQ

4H741-bA = target: T17, 4H741-bA
T17 chain: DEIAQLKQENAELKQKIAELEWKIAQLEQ

4H2473-bA = target: T18, 4H2473-bA
T18 chain: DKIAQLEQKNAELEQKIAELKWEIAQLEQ

4H477-bA = target: T19, 4H477-bA
T19 chain: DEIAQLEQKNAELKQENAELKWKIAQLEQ

4H40-bA = target: T20, 4H40-bA
T20 chain: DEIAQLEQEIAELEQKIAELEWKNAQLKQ

4H2692-bA = target: T21, 4H2692-bA
T21 chain: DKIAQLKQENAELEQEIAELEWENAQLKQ

4H2588-bA = target: T22, 4H2588-bA
T22 chain: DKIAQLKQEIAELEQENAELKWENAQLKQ

interaction score (4H344-bA): -0.268
interaction score (4H3961-bA): 1.48
interaction score (4H3907-bA): 0.155
interaction score (4H363-bA): -0.443
interaction score (4H470-bA): 0.691
B1: 4H344-bA (peptide)
chain: DEIAQLEQKIAELKQENAELEWKNAQLKQ

interaction score (4H492-bA): 1.59
interaction score (4H3277-bA): -1.45
interaction score (4H2839-bA): 0.364
interaction score (4H3057-bA): 2.39
interaction score (4H967-bA): -0.568
interaction score (4H2915-bA): 1.77
interaction score (4H319-bA): -0.948
interaction score (4H2503-bA): 0.927
interaction score (4H2438-bA): 1.74
interaction score (4H2717-bA): -0.288
interaction score (4H348-bA): 0.0426
interaction score (4H741-bA): -0.215
interaction score (4H2473-bA): 1.36
interaction score (4H477-bA): -0.278
interaction score (4H40-bA): -0.83
interaction score (4H2692-bA): 0.00488
interaction score (4H2588-bA): -1.29
B2: 4H2438-bA (peptide)
chain: DKIAQLEQKNAELEQEIAELEWKIAQLKQ
